The data set concerns the molecule itself. The data set can be described thus: SDS-PAGE under reducing and non-reducing conditions (60 kD against 120 kD). The protocol:
The two protein peaks with OCIF activity (peaks 6 and 7) were subjected to SDS-polyacrylamide gel electrophoresis under reducing and non-reducing conditions. Briefly, 20 μL of each peak fraction was concentrated under vacuum and dissolved in 1.5 μL of 10 mM Tris-HCl, pH 8, 1 mM EDTA, 2.5% SDS, 0.01% bromophenol blue, and incubated at 37° C. overnight under non-reducing conditions or under reducing conditions (with 5% of 2-mercaptoethanol). Each 1.0 μL of sample was then analyzed by SDS-polyacrylamide gel electrophoresis with a gradient gel of 10–15% acrylamide (Pharmacia Co.) and an electrophoresis-device (Fast System, Pharmacia Co.). The following molecular weight marker proteins were used to calculate molecular weight: phosphorylase b (94 kD), bovine serum albumin (67 kD), ovalbumin (43 kD), carbonic anhydrase (30 kD), trypsin inhibitor ([…]), and lactalbumin (14.4 kD). After electrophoresis, protein bands were visualized by silver stain using Phast Silver Stain Kit.

B1: osteoclastogenesis inhibitory factor (OCIF) (other)
chain: ETFPPKYLHYDEETSHQLLCDKCPPGTYLKQHCTAKWKTVCAPCPDHYYTDSWHTSDECLYCSPVCKELQYVKQECNRTHNRVCECKEGRYLEIEFCLKHRSCPPGFGVVQAGTPERNTVCKRCPDGFFSNETSSKAPCRKHTNCSVFGLLLTQKGNATHDNICSGNSESTQKCGIDVTLCEEAFFRFAVPTKFTPNWLSVLVDNLPGTKVNAESVERIKRQHSSQEQTFQLLKLWKHQNKDQDIVKKIIQDIDLCENSVQRHIGHANLTFEQLRSLMESLPGKKVGAEDIEKTIKACKPSDQILKLLSLWRIKNGDQDTLKGLMHALKHSKTYHFPKTVTQSLKKTIRFLHSFTMYKLYQKLFLEMIGNQVQSVKISCL
notes: Secreted glycoprotein, present as a 60 kD monomer and a 120 kD homodimer under non-reducing conditions; Natural OCIF from IMR-90 medium coated the plates in the hybridoma ELISA; Recombinant OCIF was the standard in the polyclonal EIA; Unaltered OCIF in 293/EBNA conditioned medium was used in the western blot; also called nOCIF; natural OCIF
Turning to B1, the binding result is recorded as “binds”.
